Reference: the supplement of paper PMC12042874
± gives the uncertainty stated by the source.

Test: amyloid nucleation score (Sup35N fusion, yeast selection) (log enrichment); library NNK1; higher = more nucleation; inactive = no reads after selection
Outline: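 Yeast lacking psi expressed peptides of 20 random codons fused to Sup35N, received 100 μM copper sulfate for 24 hours, and were then grown for 7 days at 30°C on medium lacking adenine and uracil. Illumina sequencing of input and output plasmid inserts provided the reads. Nucleation scores are DiMSum log enrichments of output over input, centred on the mode of non-aggregating sequences. Any sequence with under 100 input reads was excluded.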

Substance | amyloid nucleation score
SCIKNSCGINYLVGQATFHN | 6.499 ± 0.049
SCIYLNGSPVDEDGKYVHDF | inactive
SCKFMIYNSVGAGSLGHVNR | 4.69 ± 0.094
SCLLTMSLE | 0.11 ± 0.43
SCYIDYNFYSWQGSWYCFKI | inactive
SCYTVYQLGLDVGRGVDLEF | -0.013 ± 0.58
SDAMSTHQRVNRF | 0.369 ± 0.55
SDEGN | 1.55 ± 0.53
SDELWLLQFPVLNNKLWEK | 0.726 ± 1.1
SDESKMCRMGYYLPALAIAW | -0.173 ± 0.82
SDFGI | -0.647 ± 0.64
SDKAMHCGCVLH | -0.891 ± 0.56
SDLELTTLFF | -0.57 ± 0.37
SDMDNTWLA | -0.797 ± 0.66
SDYMCTKSSIKLNTYIDVKD | -1.6 ± 2.1
SEAVCVRVQLAWDRLMGVRV | 0.966 ± 0.64
SECLLYSWRVILSRLSPESE | 0.257 ± 0.62
SEGCCYRKGCVTTRDSALSG | inactive
SEGIPPQFFRYTAGASNLDT | 0.306 ± 0.64
SEGMYSRMAIEWLSGE | 1.21 ± 0.69
SEVCPSSIKR | -0.067 ± 0.49
SEWSRKGVYNACLITG | -0.01 ± 0.48
SEYETG | 0.101 ± 0.34
SFAHHAFIGFILSSWWN | -1.06 ± 2.4
SFCNFQGVRFFL | 1.73 ± 0.2
SFDGLYLNSCRFSLPCLLSR | 0.196 ± 0.26

Substance | amyloid nucleation score
SFFFKFYSDSFGNSTFQTID | -0.046 ± 0.31
SFFLFRENFEMSNIRFRYVN | 0.995 ± 0.68
SFFLIIVQREKRVRTSGCL | 0.954 ± 0.8
SFFWVYHRYSMPRSLCVM | inactive
SFIIVYY | 1.84 ± 0.19
SFKWVVRVWRCRILWNSGVS | 0.001 ± 0.78
SFKYWNIRHKYFRTSLT | -0.152 ± 0.4
SFLDMGFEAVNFGVVPSIMR | 0.479 ± 0.48
SFLLGQGTL | 0.724 ± 0.69
SFLWYIGFNSWRFCGRYTTL | 0.174 ± 0.5
SFSHVYFYGVPYGQVPYRSV | 1.5 ± 0.28
SFSSSSLYSLVCRYHSIRWA | 0.589 ± 0.28
SFVSRGCSYCC | -0.489 ± 0.59
SFYILTHTNFGTFPLFDDRH | -0.897 ± 0.69
SFYVWDDSYCFVFGCTSVKC | -0.291 ± 0.47
SGAPLDAGFNIA | 0.227 ± 0.49
SGAYLKASYTSPSVRVFLVL | 2.75 ± 0.25
SGDRAYFSKFSVCIPRDRVQ | -0.046 ± 0.67
SGDWTYFIIMRWDLPFIICR | 0.265 ± 0.22
SGFSGVRNHPRETQLCHGSA | -0.094 ± 0.33
SGGELVVLIYMNMGASGWAP | -0.756 ± 0.56
SGGSLVFVCYGRNF | -1.35 ± 1.1
SGGYLADYPLRVNLLFFNFV | 0.431 ± 0.43
SGIVLTG | -1.06 ± 2.1
SGLGTNKRSTPWYHSRFEGQ | 0.036 ± 0.47
SGMRRFRWLEVFSTDQRLEA | inactive

Substance | amyloid nucleation score
SGQMSLWSYL | 0.781 ± 0.59
SGSSTVWCAYRMTGQPPGRT | 1.37 ± 0.51
SGTIYWLTDQSDFILLVMRD | -1.26 ± 0.47
SGTRELALGRFHTCCNQRGK | 0.442 ± 0.27
SHLFQM | -0.034 ± 0.58
SHLGVVCNRLVYERETNVST | -0.191 ± 0.29
SHLMPGCEKFLHCVSFPDA | -0.45 ± 0.56
SHLNHEGFRLIQCLIWSLHW | 0.33 ± 0.54
SHMDHGRQRWCSN | 0.83 ± 0.88
SHMMHSMAEVSFARYWDKQS | -2.46 ± 1.9
SHRSFFCSSLWMNYYCLISS | inactive
SHTTILTSWRSYKKMKASNA | 0.496 ± 0.43
SHYTHVFLM | -0.468 ± 0.93
SIANVSFW | 1.59 ± 0.18
SIAYPRNIELRWDEIGGDML | 0.178 ± 0.54
SIGFLYCPLMSCASNFKWSK | 4.55 ± 0.068
SILEQILC | -0.324 ± 0.22
SILIRLIISTINCCVNNVAF | 5.43 ± 0.083
SINHNGPDQLKGVPFSCSCV | inactive
SINSRKSFMFIF | 2.39 ± 0.16
SINVL | -1.03 ± 0.55
SINVPPHSGHELH | 1.12 ± 0.76
SIPYSRRVF | 0.103 ± 0.41
SIRSFMIVL | 3.49 ± 0.13
SISWVWAAPIRAI | -1.59 ± 2.4
SIWKRLYFQVNGL | 0.925 ± 0.92

Substance | amyloid nucleation score
SKCIWDFGYVSPWAISS | inactive
SKDGCSCFDIDVAMEGLLMR | -0.053 ± 1.1
SKFFQLFSVTILYAMDSGPC | -0.462 ± 0.7
SKKIVGIFYKVCSRRLFMVC | 0.456 ± 0.6
SKLLNVDLTPCRSRTTLFVC | 1.29 ± 0.47
SKNAWRVKNKSEFAV | 0.488 ± 0.69
SKQFQASFHRVYSSVFSGWH | 0.669 ± 0.38
SKSDQSWYFL | -0.227 ± 0.68
SKSYFSIV | -0.361 ± 0.39
SKWYSDQT | inactive
SKYGAYGRMVSSNLDT | -0.204 ± 0.84
SKYVYSF | 1.2 ± 0.13
SLCRGATGGDGWWGVCSSA | 0.614 ± 0.91
SLDDPFRENCLLESFSLMLS | -0.552 ± 1.9
SLDYVSQFIQLLRFFKFYMV | inactive
SLECLALTFVGYVTGRLMDL | -1.02 ± 1.7
SLEDLWTRVERIRASEPVLG | -0.293 ± 0.92
SLFMSYLCRLVHRLLSRKIG | -0.172 ± 0.28
SLGPFRDVSCYVVAGIQTVN | -1.66 ± 2.7
SLGVDYDTGSVVYVAGCNCR | 0.009 ± 0.46
SLIMIGIFFYFSLSKQPRSV | 0.027 ± 1.7
SLKMMIFQRGFYTSIG | 1.75 ± 0.13
SLLCCVLVFSFCFSPFRSSE | 1.52 ± 0.16
SLLIELSFRTGNSEY | 0.152 ± 0.5
SLLMRIS | -0.434 ± 0.61
SLLSYMFQGDDVKCHGSAVL | 1.01 ± 0.76

Substance | amyloid nucleation score
SLMDKMPTIVLELVYHAVQI | 0.018 ± 0.49
SLNRWGVFLCEVALRLADGR | 0.542 ± 0.85
SLNSPL | 0.391 ± 0.85
SLSFVVSGMRFAFAGFFMVS | -0.055 ± 0.21
SLSPWWIHANPWWPYMSNQV | inactive
SLSTGIAFINLAACVYSKLT | 2.85 ± 0.18
SLVAGVVFVFMYRVPKIGLV | -0.807 ± 1.2
SLWNDFHMVAVYLVTLSSVD | 0.895 ± 0.79
SLWNSCSSE | 4.68 ± 0.064
SLYFFLFRCVCKRLYSGWNV | -0.481 ± 1
SLYVKWSQILLPLVLYVWYY | 0.232 ± 0.45
SMEIYLDFMNVCSKMVNASG | -0.093 ± 0.3
SMFKGTIWRQHSLS | 0.618 ± 0.85
SMGLKPGEVCLNKDFDSH | 0.036 ± 1.2
SMKCRNGILWFQRLVYLLLS | -0.747 ± 0.56
SMLLSRKHCGGVNEKHFM | -0.311 ± 0.35
SMMEAFDPKYAVSWSVESLT | 1.26 ± 0.67
SMRSNWPGYCTRNGFTLSLL | -0.684 ± 0.32
SMSPVSSVTN | 0.07 ± 0.35
SMVKRSSVVYGLSRGSIKER | 1.08 ± 0.69
SNCLDMTVTAW | inactive
SNDTLS | 0.265 ± 0.39
SNEVYWQ | 1.25 ± 0.3
SNEYYPSLHYRVSVGKGLGR | -0.154 ± 1.2
